Earlier results on 1 substance are cited in paper PMC5148012.

The data set addresses GP1bα (glycocalicin) glycocalicin (extracellular part) (Homo sapiens) (UniProt P07359).
UniProt P07359, sequence (P07359 17-506): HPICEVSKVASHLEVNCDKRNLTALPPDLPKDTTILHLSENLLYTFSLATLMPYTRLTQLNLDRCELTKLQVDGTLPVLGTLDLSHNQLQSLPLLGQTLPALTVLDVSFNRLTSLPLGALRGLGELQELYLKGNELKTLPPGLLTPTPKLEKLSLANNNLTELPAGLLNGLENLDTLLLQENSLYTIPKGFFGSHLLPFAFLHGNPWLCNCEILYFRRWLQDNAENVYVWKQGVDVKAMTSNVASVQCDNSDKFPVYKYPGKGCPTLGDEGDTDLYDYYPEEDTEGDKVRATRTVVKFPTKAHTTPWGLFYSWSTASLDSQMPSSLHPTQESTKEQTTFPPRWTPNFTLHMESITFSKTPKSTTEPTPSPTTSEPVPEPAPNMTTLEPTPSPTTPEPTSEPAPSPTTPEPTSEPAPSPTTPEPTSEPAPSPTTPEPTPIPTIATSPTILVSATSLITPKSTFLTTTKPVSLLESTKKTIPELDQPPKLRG

As for HbA (from UniProt P69905), the Kd was 44.2 µM.

As usually defined, the Kd is the concentration at which binding is half-saturated.
